Substitutions are numbered along the chain they refer to. Numbers in names are those of the source.
Legend:
[1] = target: FimH (Escherichia coli (uropathogenic)) (UniProt P08191); assay: donor strand exchange (DSE) assay, SDS-PAGE of the SDS-stable subunit:subunit product; 20 °C; 500 nM usher complex (acceptor subunit last in FimD:FimC:...) and 5 μM chaperone:subunit complex (donor), one subunit labelled with Alexa 647; quenched with HCl (quench flow for the fast reactions); fitted to Eq. (1) with KinTek Explorer
[2] = target: FimG (Escherichia coli (uropathogenic)) (UniProt P08190); assay: as above
[3] = target: FimF (Escherichia coli (uropathogenic)) (UniProt P08189); assay: as above
[4] = target: FimD:FimC:FimH complex (Escherichia coli (uropathogenic)) (UniProt P30130); assay: AUC; sedimentation velocity of purified FimD:FimC:FimH at the higher concentrations (> 1 μM, up to 4.3 μM); 20 °C, 42,000 rpm, absorbance optics; 50 mM Tris pH 8.0, 150 mM NaCl, 1 mM EDTA, 0.05% DDM; c(s) by SedFit; Kd of usher dimerisation (dimer to monomers) estimated by integrating the monomer and dimer peaks at 4.3 μM
[5] = target: the molecule itself; assay: donor strand exchange (DSE) assay, SDS-PAGE of the SDS-stable subunit:subunit product; spontaneous (non-usher mediated) formation of FimG polymers from FimC:FimG during the slow reactions
[6] = target: FimF^Q99C[A647] (Escherichia coli (uropathogenic)); assay: donor strand exchange (DSE) assay, SDS-PAGE of the SDS-stable subunit:subunit product; 20 °C; 500 nM usher complex (acceptor subunit last in FimD:FimC:...) and 5 μM chaperone:subunit complex (donor), one subunit labelled with Alexa 647; quenched with HCl (quench flow for the fast reactions); fitted to Eq. (1) with KinTek Explorer
FimF [7] = target: T1, FimF (Escherichia coli (uropathogenic), UniProt P08189 21-176); assay: donor strand exchange (DSE) assay, SDS-PAGE of the SDS-stable subunit:subunit product; 20 °C; FimD:FimC:FimH:FimG and FimC:FimF both unlabelled; silver staining and densitometry of the FimH:FimG:FimF product; details: both partners purified
T1 construct: also called unlabelled FimF; FimC:FimF (as chaperone complex)
T1 sequence: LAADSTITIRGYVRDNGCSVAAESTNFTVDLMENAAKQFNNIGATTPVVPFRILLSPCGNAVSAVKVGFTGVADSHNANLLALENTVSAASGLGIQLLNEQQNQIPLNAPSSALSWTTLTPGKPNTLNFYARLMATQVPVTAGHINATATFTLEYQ

FimF [8] = target: T1, FimF; assay: donor strand exchange (DSE) assay, SDS-PAGE of the SDS-stable subunit:subunit product; 20 °C; 500 nM usher complex (acceptor subunit last in FimD:FimC:...) and 5 μM chaperone:subunit complex (donor), one subunit labelled with Alexa 647; quenched with HCl (quench flow for the fast reactions); fitted to Eq. (1) with KinTek Explorer; details: both partners purified
[9] = target: the molecule itself; assay: AUC; sedimentation velocity of FimD alone at 5 μM and 2 μM; 20 °C, 42,000 rpm; 50 mM Tris pH 8.0, 150 mM NaCl, 1 mM EDTA, 0.05% DDM; monomer to dimer

Molecule FimF^Q99C[A647] (natural protein) has a kDSE (rate of donor strand exchange, 20 °C) [1] of 58.3 min⁻¹, a kDSE (rate of donor strand exchange, 20 °C) [2] of 3.16 min⁻¹ and a kDSE (rate of donor strand exchange, 20 °C) [3] of 0.359 min⁻¹.

Work on “FimD:FimC:FimH complex (from UniProt P30130;P31697;P08191)” yielded a Kd [4] of 20 µM.

B1: FimG (natural protein)
chain: ADVTITVNGKVVAKPCTVSTTNATVDLGDLYSFSLMSAGAASAWHDVALELTNCPVGTSRVTASFSGAADSTGYYKNQGTAQNIQLELQDDSGNTLNTGATKTVQVDDSSQSAHFPLQVRALTVNGGATQGTIQAVISITYTYS
notes: also called unlabelled FimG; FimC:FimG (as chaperone complex)
For B1, the binding result [5] was “binds”, the kDSE (rate of donor strand exchange, 20 °C) [6] was 0.326 min⁻¹ and the binding result (FimF [7]) was “binds”.

B2: FimG^S92C[A647] (natural protein)
chain: B1 chain with S92C
modifications: fluorescent Alexa 647 label at position 92 (on S92C)
B2: binds (FimF [8]).

B3: FimD usher (natural protein)
chain: DLYFNPRFLADDPQAVADLSRFENGQELPPGTYRVDIYLNNGYMATRDVTFNTGDSEQGIVPCLTRAQLASMGLNTASVAGMNLLADDACVPLTTMVQDATAHLDVGQQRLNLTIPQAFMSNRARGYIPPELWDPGINAGLLNYNFSGNSVQNRIGGNSHYAYLNLQSGLNIGAWRLRDNTTWSYNSSDRSSGSKNKWQHINTWLERDIIPLRSRLTLGDGYTQGDIFDGINFRGAQLASDDNMLPDSQRGFAPVIHGIARGTAQVTIKQNGYDIYNSTVPPGPFTINDIYAAGNSGDLQVTIKEADGSTQIFTVPYSSVPLLQREGHTRYSITAGEYRSGNAQQEKTRFFQSTLLHGLPAGWTIYGGTQLADRYRAFNFGIGKNMGALGALSVDMTQANSTLPDDSQHDGQSVRFLYNKSLNESGTNIQLVGYRYSTSGYFNFADTTYSRMNGYNIETQDGVIQVKPKFTDYYNLAYNKRGKLQLTVTQQLGRTSTLYLSGSHQTYWGTSNVDEQFQAGLNTAFEDINWTLSYSLTKNAWQKGRDQMLALNVNIPFSHWLRSDSKSQWRHASASYSMSHDLNGRMTNLAGVYGTLLEDNNLSYSVQTGYAGGGDGNSGSTGYATLNYRGGYGNANIGYSHSDDIKQLYYGVSGGVLAHANGVTLGQPLNDTVVLVKAPGAKDAKVENQTGVRTDWRGYAVLPYATEYRENRVALDTNTLADNVDLDNAVANVVPTRGAIVRAEFKARVGIKLLMTLTHNNKPLPFGAMVTSESSQSSGIVADNGQVYLSGMPLAGKVQVKWGEEENAHCVANYQLPPESQQQLLTQLSAECR
notes: also called apo FimD; the usher; source: in 0.05% DDM
For B3, the “stoichiometry N” value [9] was 2.

— article PMC3650583, “Dissection of Pilus Tip Assembly by the FimD Usher Monomer” (Journal of Molecular Biology, 2013)
